Experimental data: patent publication US11325966

Experiments:
Test in all cases: cell-based or functional assay
[1] = biological target: 92BR020 D325A (HIV-1)
[2] = biological target: 92BR020 N136A + N156A + N301A (HIV-1)
[3] = biological target: 92BR020 N136A + N332A (HIV-1)
[4] = biological target: 92BR020 N301A (HIV-1)
[5] = biological target: 92BR020 N301A + N332A (HIV-1)
[6] = biological target: 92BR020 N332A (HIV-1)
[7] = biological target: BG505 (T332N) N156A (HIV-1)
[8] = biological target: BG505 (T332N) N295A (HIV-1)
[9] = biological target: BG505 (T332N) N392A (HIV-1)
[10] = biological target: HIV-1 Env of pseudovirus 0815.v3.c3 (HIV-1)
[11] = biological target: HIV-1 Env of pseudovirus 1012_11_TC21_3257 (HIV-1)
[12] = biological target: HIV-1 Env of pseudovirus 1054_07_TC4_1499 (HIV-1)
[13] = biological target: HIV-1 Env of pseudovirus 191955_A11 (HIV-1)
[14] = biological target: HIV-1 Env of pseudovirus 3365.v2.c2 (HIV-1)
[15] = biological target: HIV-1 Env of pseudovirus 3817.v2.c59 (HIV-1)
[16] = biological target: HIV-1 Env of pseudovirus 6240_08_TA5_4622 (HIV-1)
[17] = biological target: HIV-1 Env of pseudovirus 6244_13_B5_4576 (HIV-1)
[18] = biological target: HIV-1 Env of pseudovirus 6535.3 (HIV-1)
[19] = biological target: HIV-1 Env of pseudovirus 6540.v4.c1 (HIV-1)
[20] = biological target: HIV-1 Env of pseudovirus 6545.v4.c1 (HIV-1)
[21] = biological target: HIV-1 Env of pseudovirus 6952.v1.c20 (HIV-1)
[22] = biological target: HIV-1 Env of pseudovirus 9004SS_A3_4 (HIV-1)
[23] = biological target: HIV-1 Env of pseudovirus BJOX028000.10.3 (HIV-1)
[24] = biological target: HIV-1 Env of pseudovirus CNE17 (HIV-1)
[25] = biological target: HIV-1 Env of pseudovirus CNE19 (HIV-1)
[26] = biological target: HIV-1 Env of pseudovirus CNE20 (HIV-1)
[27] = biological target: HIV-1 Env of pseudovirus CNE21 (HIV-1)
[28] = biological target: HIV-1 Env of pseudovirus Ce0682_E4 (HIV-1)
[29] = biological target: HIV-1 Env of pseudovirus Ce1086_B2 (HIV-1)
[30] = biological target: HIV-1 Env of pseudovirus Ce704809221_1B3 (HIV-1)
[31] = biological target: HIV-1 Env of pseudovirus P1981_C5_3 (HIV-1)
[32] = biological target: HIV-1 Env of pseudovirus Q461.e2 (HIV-1)
[33] = biological target: HIV-1 Env of pseudovirus Q842.d12 (HIV-1)
[34] = biological target: HIV-1 Env of pseudovirus REJO4541.67 (HIV-1)
[35] = biological target: HIV-1 Env of pseudovirus T251-18 (HIV-1)
[36] = biological target: HIV-1 Env of pseudovirus TRJO4551.58 (HIV-1)
[37] = biological target: HIV-1 Env of pseudovirus X1254_c3 (HIV-1)
[38] = biological target: HIV-1 Env of pseudovirus X1632_S2_B10 (HIV-1)
[39] = biological target: HIV-1 Env of pseudovirus X2131_C1_B5 (HIV-1)
[40] = biological target: HIV-1 Env of pseudovirus ZM197M.PB7 (HIV-1)
[41] = biological target: HIV-1 Env of pseudovirus ZM53M.PB12 (HIV-1)
[42] = biological target: JR-CSF G324A (HIV-1) (UniProt P20871)
[43] = biological target: JR-CSF N332A (HIV-1) (UniProt P20871)

PGT121 (antibody)
IC50 in TZM-bl assay [1]: 0.006 µg/mL
IC50 in TZM-bl assay [2]: 0.001 µg/mL
IC50 in TZM-bl assay [3]: > 1 µg/mL
IC50 in TZM-bl assay [4]: 0.003 µg/mL
IC50 in TZM-bl assay [5]: > 1 µg/mL
IC50 in TZM-bl assay [6]: 0.08 µg/mL
IC50 in TZM-bl assay [7]: 0.007 µg/mL
IC50 in TZM-bl assay [8]: 0.014 µg/mL
IC50 in TZM-bl assay [9]: 0.006 µg/mL
IC50 in TZM-bl assay [10]: 0.017 µg/mL
IC80 in TZM-bl assay [10]: 0.085 µg/mL
IC50 in TZM-bl assay [11]: 0.008 µg/mL
IC80 in TZM-bl assay [11]: 0.034 µg/mL
IC50 in TZM-bl assay [12]: 0.041 µg/mL
IC80 in TZM-bl assay [12]: 0.299 µg/mL
IC50 in TZM-bl assay [13]: > 10 µg/mL
IC80 in TZM-bl assay [13]: > 10 µg/mL
IC50 in TZM-bl assay [14]: 0.243 µg/mL
IC80 in TZM-bl assay [14]: 2.13 µg/mL
IC50 in TZM-bl assay [15]: > 10 µg/mL
IC80 in TZM-bl assay [15]: > 10 µg/mL
IC50 in TZM-bl assay [16]: 0.068 µg/mL
IC80 in TZM-bl assay [16]: 0.231 µg/mL
IC50 in TZM-bl assay [17]: 0.172 µg/mL
IC80 in TZM-bl assay [17]: 1.47 µg/mL
IC50 in TZM-bl assay [18]: 0.003 µg/mL
IC80 in TZM-bl assay [18]: 0.01 µg/mL
IC50 in TZM-bl assay [19]: > 10 µg/mL
IC80 in TZM-bl assay [19]: > 10 µg/mL
IC50 in TZM-bl assay [20]: > 10 µg/mL
IC80 in TZM-bl assay [20]: > 10 µg/mL
IC80 in TZM-bl assay [21]: 0.348 µg/mL
IC50 in TZM-bl assay [22]: 0.006 µg/mL
IC50 in TZM-bl assay [23]: > 10 µg/mL
IC80 in TZM-bl assay [23]: > 10 µg/mL
IC50 in TZM-bl assay [24]: 3.96 µg/mL
IC80 in TZM-bl assay [24]: > 10 µg/mL
IC80 in TZM-bl assay [25]: 0.083 µg/mL
IC50 in TZM-bl assay [26]: 0.003 µg/mL
IC80 in TZM-bl assay [26]: 0.006 µg/mL
IC50 in TZM-bl assay [27]: 0.009 µg/mL
IC80 in TZM-bl assay [27]: 0.031 µg/mL
IC50 in TZM-bl assay [28]: > 10 µg/mL
IC80 in TZM-bl assay [28]: > 10 µg/mL
IC50 in TZM-bl assay [29]: 0.003 µg/mL
IC50 in TZM-bl assay [30]: 0.043 µg/mL
IC80 in TZM-bl assay [30]: 0.285 µg/mL
IC50 in TZM-bl assay [31]: 0.002 µg/mL
IC80 in TZM-bl assay [31]: 0.009 µg/mL
IC50 in TZM-bl assay [32]: > 10 µg/mL
IC80 in TZM-bl assay [32]: > 10 µg/mL
IC50 in TZM-bl assay [33]: 0.01 µg/mL
IC80 in TZM-bl assay [33]: 0.037 µg/mL
IC50 in TZM-bl assay [34]: > 10 µg/mL
IC80 in TZM-bl assay [34]: > 10 µg/mL
IC50 in TZM-bl assay [35]: 5.18 µg/mL
IC80 in TZM-bl assay [35]: > 10 µg/mL
IC50 in TZM-bl assay [36]: 0.802 µg/mL
IC80 in TZM-bl assay [36]: > 10 µg/mL
IC80 in TZM-bl assay [37]: 0.085 µg/mL
IC50 in TZM-bl assay [38]: > 10 µg/mL
IC80 in TZM-bl assay [38]: > 10 µg/mL
IC80 in TZM-bl assay [39]: 0.037 µg/mL
IC50 in TZM-bl assay [40]: > 10 µg/mL
IC80 in TZM-bl assay [40]: > 10 µg/mL
IC50 in TZM-bl assay [41]: 0.001 µg/mL
IC80 in TZM-bl assay [41]: 0.005 µg/mL
IC50 in TZM-bl assay [42]: 0.044 µg/mL
IC50 in TZM-bl assay [43]: > 50 µg/mL
